In patent US20250051455A1 (Hoffmann-La Roche, published 2025):

B1: HLA-G-0041 (antibody, V domains shown)
VH: EVQLLESGGGLVQPGGSLRLSCAASGFTFSTYGMSWVRQAPGKGLEWVSVISGGGVSTYYADSVKGRFTISRDNSKNTLYLQMNRLRAEDTAVYYCAKDGSYNYGYGDYFDYWGQGTLVTVSS
VL: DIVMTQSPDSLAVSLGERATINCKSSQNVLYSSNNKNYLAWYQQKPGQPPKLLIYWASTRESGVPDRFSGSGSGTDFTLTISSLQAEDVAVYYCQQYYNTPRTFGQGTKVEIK
notes: Human antibody from humanized OmniRat (OMT) rats
B2: HLA-G-0090 (antibody, V domains shown)
VH: QVQLQQSGPGLLKPSQTLSLTCAISGDSVSSNRAAWNWIRQSPSRGLEWLGRTYYRSKWYNDYAVSVQGRITLIPDTSKNQFSLRLNSVTPEDTAVYYCASVRAVAPFDYWGQGVLVTVSS
VL: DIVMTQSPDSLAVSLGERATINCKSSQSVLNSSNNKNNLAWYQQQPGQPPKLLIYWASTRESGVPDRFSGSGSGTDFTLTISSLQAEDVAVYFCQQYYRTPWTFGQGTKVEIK
notes: as for B1

Tests used:
[1] = target: T1, modified human HLA-G β2M MHC class I complex (HLA-G specific amino acids replaced by HLA-A consensus amino … (human)); experiment: ELISA, biotinylated degrafted HLA-G on streptavidin plate (no EC50; Max. OD 0.15)
T1 construct: Counter antigen: single-chain fusion of peptide, beta-2 microglobulin and HLA-G in which 14 HLA-G unique surface positions were mutated to an HLA-A consensus; also called degrafted HLA-G; HLA-G-0007
Protocol: (§1) Streptavidin coated plates (Nunc, MicroCoat #11974998001) were coated with 25 μl/well biotinylated human degrafted HLA-G at a concentration of 250 ng/ml and incubated at 4° C. overnight. After washing (3×90 μl/well with PBST-buffer) 25 μl anti-HLA-G samples (1:3 dilution in OSEP buffer) or rat serum (1:600 dilution in OSEP) were added and incubated 1 h at RT. After washing (3×90 μl/well with PBST-buffer) 25 μl/well of a mixture of goat-anti-rat IgG1-POD (Bethyl #A110-106P), goat-anti-rat IgG2a-POD (Bethyl #A110-109P) and goat-anti-rat IgG2b-POD (Bethyl #A110-111P) 1:10000 in OSEP was added and incubated at RT for 1 h on shaker. After washing (6×90 μl/well with PBST-buffer) 25 μl/well TMB substrate (Roche, 11835033001) was added and incubated until OD 2-3. Measurement took place on a Tecan Safire 2 instrument at 370/492 nm.

[2] = target: T1, modified human HLA-G β2M MHC class I …; experiment: ELISA, biotinylated degrafted HLA-G on streptavidin plate (no EC50; Max. OD 0.2)
Protocol: as §1

[3] = target: T2, recombinant soluble human HLA-G β2M MHC class I complex, dimer (human); experiment: competition ELISA, antibody 44 nM; competitor coated ILT4-Fc
T2 construct: Non-biotinylated; also called HLA-G Dimer; dimeric HLA-G
Protocol: The ELISA was set up by coating the Fc tagged ILT2 and ILT4 respectively to Maxisorp microtiter plates. After incubation and washing steps, the respective antibodies were added at a concentration of 100 nM. Soluble His tagged monomeric, dimeric or trimeric HLA-G was added to the wells. After incubation and washing steps, detection of bound receptor was carried out by anti-His-antibody-POD conjugates.
The above tables summarize the blocking of interaction between rec. HLA-G proteins (monomer and oligomers) to its receptors ILT2 and ILT4 by the described HLAG antibodies at a concentration of 110 nM (*HLAG-0090 was tested at a concentration of 44 nM) as assessed by ELISA. Shown are the % inhibitions of the HLA-G/receptor interaction (for ILT2 and ILT4). The less pronounced ILT4 inhibition depends on the major β2M dependent interaction of this receptor.

Row | Binder | binding result [1] | binding result [2] | % inhibition of ILT4 binding [3] [%]
1 | B1 | no binding | – | –
2 | B2 | – | no binding | 31
